Ends that are not written are not given here. GS linker = not defined here
Key:
[1] = biological target: the molecule itself; assay: cryo-EM structure; purified StrepII-tagged FocA solubilised in DDM, 5 mg/mL, vitrified at 4 °C; single-particle reconstruction with C5 symmetry (wild type also C1)
[2] = biological target: T1, Pyruvate formate-lyase (PflB), full length, His-tagged (E. coli, UniProt P09373 1-760); assay: cross-linking; XL-MS with sulfo-SDA: 10 uM FocA modified with 50-fold sulfo-SDA (100 mM MOPS, 150 mM NaCl, DDM, pH 7.0), then mixed with 10 uM PflB and UV-irradiated (365 nm); digest with trypsin and GluC, LC/MS/MS; conditions: both partners purified
T1 construct: Pyruvate formate-lyase PflB, E. coli, UniProt P09373, full length; also called His-tagged PflB
T1 sequence (looked up): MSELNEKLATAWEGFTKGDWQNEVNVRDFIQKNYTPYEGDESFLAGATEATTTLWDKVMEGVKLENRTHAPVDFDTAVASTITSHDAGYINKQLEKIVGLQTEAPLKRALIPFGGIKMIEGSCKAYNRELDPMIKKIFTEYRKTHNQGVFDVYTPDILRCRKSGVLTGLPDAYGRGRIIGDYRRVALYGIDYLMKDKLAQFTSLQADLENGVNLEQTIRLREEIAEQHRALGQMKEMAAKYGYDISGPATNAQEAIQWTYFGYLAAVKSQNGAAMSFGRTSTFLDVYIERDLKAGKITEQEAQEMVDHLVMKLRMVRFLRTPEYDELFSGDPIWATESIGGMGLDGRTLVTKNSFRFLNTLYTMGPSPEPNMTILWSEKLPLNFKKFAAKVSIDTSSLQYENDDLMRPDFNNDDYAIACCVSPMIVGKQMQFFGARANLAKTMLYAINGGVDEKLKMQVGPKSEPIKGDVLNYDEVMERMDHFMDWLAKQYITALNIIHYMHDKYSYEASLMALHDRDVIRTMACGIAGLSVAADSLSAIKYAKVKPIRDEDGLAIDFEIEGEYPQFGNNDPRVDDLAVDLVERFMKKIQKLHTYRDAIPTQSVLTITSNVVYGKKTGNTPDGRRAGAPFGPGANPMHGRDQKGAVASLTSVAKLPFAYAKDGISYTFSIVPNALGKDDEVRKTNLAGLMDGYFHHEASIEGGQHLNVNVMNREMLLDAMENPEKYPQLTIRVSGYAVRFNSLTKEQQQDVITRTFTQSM

[3] = biological target: T1, Pyruvate formate-lyase (PflB), full …; assay: cross-linking; XL-MS with DSBU: 10 uM PflB with equimolar FocA N-terminal peptide, 50- or 100-fold DSBU, 30 min, room temperature, 100 mM MOPS, 150 mM NaCl, pH 7.0; digest with trypsin and GluC, LC/MS/MS; conditions: both partners purified

B1: FocA (formate channel), wild type, full length, C-terminal StrepII-tag (natural protein, E. coli, UniProt P0AC23 1-285, looked up)
chain: MKADNPFDLLLPAAMAKVAEEAGVYKATKHPLKTFYLAITAGVFISIAFVFYITATTGTGTMPFGMAKLVGGICFSLGLILCVVCGADLFTSTVLIVVAKASGRITWGQLAKNWLNVYFGNLVGALLFVLLMWLSGEYMTANGQWGLNVLQTADHKVHHTFIEAVCLGILANLMVCLAVWMSYSGRSLMDKAFIMVLPVAMFVASGFEHSIANMFMIPMGIVIRDFASPEFWTAVGSAPENFSHLTVMNFITDNLIPVTIGNIIGGGLLVGLTYWVIYLRENDHH
notes: FocA, formate channel of the formate-nitrite transporter family, E. coli, UniProt P0AC23, full length; Pentamer in the cryo-EM structure; In the sulfo-SDA experiment FocA was first modified on amines with sulfo-SDA; also called native FocA; wild-type FocA; source: E. coli BL21(DE3) transformed with pfocA3; solubilised from membranes with DDM, purified (Strep-Tactin Sepharose); not shown: StrepII, …
With B1 the “stoichiometry N” value [1] was 5 and the binding result [2] was “binds”.

B2: FocA-H209N variant, C-terminal StrepII-tag (natural protein, E. coli, UniProt P0AC23 1-285, looked up)
chain: MKADNPFDLLLPAAMAKVAEEAGVYKATKHPLKTFYLAITAGVFISIAFVFYITATTGTGTMPFGMAKLVGGICFSLGLILCVVCGADLFTSTVLIVVAKASGRITWGQLAKNWLNVYFGNLVGALLFVLLMWLSGEYMTANGQWGLNVLQTADHKVHHTFIEAVCLGILANLMVCLAVWMSYSGRSLMDKAFIMVLPVAMFVASGFENSIANMFMIPMGIVIRDFASPEFWTAVGSAPENFSHLTVMNFITDNLIPVTIGNIIGGGLLVGLTYWVIYLRENDHH
notes: FocA, E. coli, UniProt P0AC23, with the exchange H209N; made by mutagenesis of pfocA3, which carries the native focA gene; Reconstructed with C5 symmetry; also called H209N-FocA; source: E. coli BL21(DE3) transformed with pfocAH209N; solubilised from membranes with DDM, purified (Strep-Tactin Sepharose); not shown: StrepII, C-terminal, kept
B2: binds [1].

B3: FocA N-terminal peptide (residues 1-35 of FocA, GS linker, Strep-II tag) (peptide)
peptide: MKADNPFDLLLPAAMAKVAEEAGVYKATKHPLKTF-{GS linker-Strep‑II tag}
modifications: reading uncertain
notes: FocA, E. coli, residues 1-35 (the N-terminus of FocA); Whole peptide as printed, 45 residues: [residues removed]; also called N-terminal FocA peptide (1-45); N-terminal peptide of FocA; source: synthetic peptide (Thermo Fisher); not shown: StrepII (after a GS linker), C-terminal, kept
B3: binds [3].
